In publication PMC11381335, “Unraveling the structure and function of a novel SegC protein interacting with the SegAB chromosome segregation complex in Archaea” (Nucleic Acids Research, 2024):

Molecular target: T1, SegC1-155 (UniProt Q981B4 1-155, del156-165)
T1 sequence: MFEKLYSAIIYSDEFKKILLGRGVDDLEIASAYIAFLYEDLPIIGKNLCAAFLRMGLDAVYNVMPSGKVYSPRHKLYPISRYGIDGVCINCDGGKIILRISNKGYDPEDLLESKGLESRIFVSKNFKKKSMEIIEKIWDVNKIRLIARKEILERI
Experiment: fluorescence polarization; FP: 20 mM Tris-HCl pH 7.5, 100 mM NaCl, 2 mM MgCl2, 5 nM Cy3-DNA, room temperature; EMSA: same buffer, 10 nM Cy3-DNA, 37 C 30 min, 4-12% TBE gel
Settings: protein: recombinant; tags: C-terminal His6; label: 5' Cy3; 20 bp paired with 3' overhang 1 nt at each end (from printed strands)

B1: 21-bp site 1 (S1) dsDNA (dsDNA)
DNA 1: ACGTAGAAGAGTCTAGACTGA
DNA 2: CAGTCTAGACTCTTCTACGTA
B1: no binding.
